Results as given in PMC9388512 (Nature Communications, 2022).
FAM = carboxyfluorescein label

Assays:
[1] = target: T1, eIF4E, purified recombinant human full-length (human, UniProt P06730 1-217); assay: SPR; 4E-BP1^4ALA over eIF4E amine-coupled to a CM5 chip; single or multi cycle not told; fitted with a 1:1 model (poor fit) and then with a 2-state model; n = 3; details: both partners purified
T1 construct: eIF4E, human, full-length clone in pET11d; m7GTP was present at immobilisation and in the crystals; also called pure eIF4E; eukaryotic translation initiation factor 4E

[2] = target: T1, eIF4E, purified recombinant human …; assay: fluorescence polarisation; competition: eIF4E 200 nM, FAM-labelled eIF4G1 peptide 50 nM, VH domains titrated; PBS pH 7.4, 0.1% Tween 20; details: both partners purified

T1 sequence (P06730 whole entry): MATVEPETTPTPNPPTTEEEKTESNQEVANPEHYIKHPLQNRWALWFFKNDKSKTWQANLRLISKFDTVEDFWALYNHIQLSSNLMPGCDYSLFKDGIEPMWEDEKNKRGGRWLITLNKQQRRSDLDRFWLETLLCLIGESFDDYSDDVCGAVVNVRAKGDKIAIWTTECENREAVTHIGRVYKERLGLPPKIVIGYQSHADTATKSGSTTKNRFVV

Kd [1] [nM] | binding result [2] | Binder
0.68 |  | 4E-BP1^4ALA, purified (natural protein, UniProt Q13541 1-118, looked up) MSGGSSCSQTPSRAIPATRRVVLGDGVQLPPGDYSTAPGGTLFSTAPGGTRIIYDRKFLMECRNAPVTKAPPRDLPTIPGVTSPSSDEPPMEASQSHLRNSPEDKRAGGEESQFEMDI
 | binds | Ac-KKRYSRDFLLALQK(FAM)-NH2 (also called labelled peptide; tracer peptide; source: synthetic peptide; bought: Mimotopes) [FAM labelled eIF4G1 peptide (Ac-KKRYSRDFLLALQK-(FAM)-NH2)]
